Assay: label from the status in PepcDB records
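Note: failed if final PepcDB status was selected cloned or expressed and not failed if soluble or beyond.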

| Sequence | protein production |
| --- | --- |
| MSTPLQGIKVLDFTGVQSGPSCTQMLAWFGADVIKIERPGVGDVTRHQLRDIPDIDALYFTMLNSNKRSIELNTKTAEGKEVMEKLIREADILVENFHPGAIDHMGFTWEHIQEINPRLIFGSIKGFDECSPYVNVKAYENVAQAAGGAASTTGFWDGPPLVSAAALGDSNTGMHLLIGLLAALLHREKTGRGQRVTMSMQDAVLNLCRVKLRDQQRLDKLGYLEEYPQYPNGTFGDAVPRGGNAGGGGQPGWILKCKGWETDPNAYIYFTIQEQNWENTCKAIGKPDWITDPAYSTAHARQPHIFDIFAEIEKYTVTIDKHEAVAYLTQFDIPCAPVLSMKEISLDPSLRQSGSVVEVEQPLRGKYLTVGCPMKFSAFTPDIKAAPLLGEHTAAVLQELGYSDDEIAAMKQNHAI | failed |
| MSTPLTLIATITAAPGHAEALERELRALVAPSRAEAGCLQYDLHQDRHDSHLFYMIEQWRDDAALERHQNTEHFLRFSRGNEALLQNVKIDQLYRLA | not failed |
| MSTQFKLPLASPLTHGREDFAVSPSNGEAVARLDAWPDWAEGRLVLVGPAGCGKSHLARAWAAAAGAVVVEAANPDAASVDLSALRGRAVLVEDADRRAQGAAVSDEALFHILNMAGVDGGTVLLTGRTAPLTWSAEVADLRSRLNALSVAEIAEPDDAVLEAVLRRAFAAAWWKPEPDLYPYLLARLPRSAAEAQAAAALLAEAAADGRRELTKALAREVLEGFEGDEGLEHHHHHH | failed |
| MSTQKQEQAFFGLVWLARLTVCLLTVGLALAIDSTATERHRADVRAKWQEKVDDLGLRLRATILQNTQTVWGLAANVAVQPDIGEERFQRLASVIFKLAPELLNIGLAPGFVIKHIYPLDGNEAALGLDLQAQSLSRDQMALLLESRRAVFSGPINLVQGGQGLAARIPIFENDTGRVWGVISTILDLDRLYTAIGLDSLPPEVVFALSTTGSGNIDKGLFFGEPDAAWQEPVSTTMAMPGFSWKLYAQPADGWPDHPDSPWLLRSLLGLVTLIIIAGTLWITTLILRDRQMQLRFWGLFELAPFGIALYDAISGELLQANPGFTRILDSKANNIGYFDDVRSLSGDKQRSEPSISNRLASQVRFTGVEGFFPMADGTLQPLMLHGLRLDLQGKESVIWIIVEDISQRKEAERLKSEFISTVSHELRTPLTSISGALSLLTTNAVGELSGKAQQLLKIAQRNSDQLGFLINDLLDIEKLIAGKMDFNVIEFPVSEAITESLENIQNYATEKNITLNAQELSTTTVKADKQRLAQALNNILSNAIKFSPVNGQIRIWTKLHGQGLRIYVQDEGPGIAPEFRERMFQKFSQADSSDRRSKGGTGLGLAITKELMARMEGDVDFTSEAGQGATFWLEVPAA | failed |
| MSTRSARIVVVSSRAAAGVYTDDCGPIIAGWLEQHGFSSVQPQVVADGNPVGEALHDAVNAGVDVIITSGGTGISPTDTTPEHTVAVLDYVIPGLADAIRRSGLPKVPTSVLSRGVCGVAGRTLIINLPGSPGGVRDGLGVLADVLDHALEQIAGGDHPR | not failed |
| MSTSEDTLRTSPDTFDADSVTSKGAPQEHARQVSGMFGRIARWYDLLNHVLSGGLDLYWRYRLVRQVVPGPTGRVLDLAAGTLDVAREIHRQHPGMRVPALDFCEAMLRAGQPKLVDGVQDVIWPAVADGRRLPLADASVDCVTIAFGIRNIVPRREAFEEMLRVLVPGGRACILEFGTGKTPVWKGLYNFYLNTLLPLVGRCVSGDAGAYRYLADTIMSFPDADALAAEMHDAGFTRVYHLPLTSGIVRLHVGEKPL | failed |
| MSTSKAITLTLFIATTLLAPCNAAANATTKPLFPAILIFGDSTVDTGNNNYPLPTIFRAEHFPYGMDLPDGKANGRFSNGKLISDIIATKLNIKEFIPPFLQPNLSDQDILTGVCFASAGAGYDDLTSLSTQAIRVSEQPNMFKSYIARLKGIVGDKKAMEIINNAFVVVSAGPNDFILNYYEIPSRRLEYPFISGYQDFILKRLENFVRELYSLGVRNVLVGGLPPMGCLPIHMTAKFRNIFRFCLEHHNKDSVLYNEKLQNLLPQIEASLPGSKFLYADVYNPMMEMIQNPSKYGFKETKRGCCGTGFLETSFMCNVFSPVCQNRSEFLFFDSIHPSEATYNVIGNLLDPLIRGKFQA | failed |
| MSTSWRIRIMLTIHAKLVEAMLAQAHKDHPFEICGVIAGPEKSNLPLRLIPMRNAAQSETFFKFDPQEQLQVWREMEARGEEPIVIYHSHTHTPAYPSRTDVQYASQPQSHYVIVPTDPAYGEEIRSFRILDGMVTEERIRMINSYKAEWELSMEAMVALEHHHHHH | not failed |
| MSTTGRIHSFESCGTVDGPGIRFIVFLQGCLMRCKYCHNRDTWDTHDGKEVTVEEIIAEAKSYRHFMNASGGGITCSGGEAMLQPEFVRDFFRAAHAEGIHTCLDTNGYIRKHTEVIDEVLDATDLVMLDIKHMKDEIHQDFIGVSNRRTLDFARYLHKIGQKTWIRYVVVPGYTDDPEAAHMLGEFIKDMDNIEKVELLPYHKLGAHKWEALGLEYPLEGVNPPSKETMDEIQSILSQYHSNVKYLEHHHHHH | failed |
| MSTTTRISTAERLGRALGRGWRAYARSERRASNWLVSKGVPLAAAAALLWAGKLAVLGLLLYVAFWLALLLVALVFVARGHDTVEWEPPEPEWRHGHAGFGLYTHDEYRIDSHDPSDET | failed |
| MSVADVALSPIHRGSAFAVGGFGQSTTTHYSVKSVLVFLSVSGSTMPMLILESDSIAEVKLRIQTCNGFRVRRQKLVFSGRELARNASRVKDYGVTGGSVLHLVLKLYDPLLVTVITTCGKVFQFHVDRRRNVGYLKKRISKEGKGFPEVDDQEILFKGEKLDDNRIIDGICKDGNSVIHLLVKKSVEDTVKREEDTATGKDSLLEPLFLTPM | failed |
| MSVAETEIPIPAATPSLTDACVHCGFCLSDCPSYRVLGRETDSPRGRVYLMDSLQQGRIELSDTVVEHFDTCLGCLACTSACPSGVQYDQLIEEMRQRIAQEHRRPWPEAIWRKLLFAFLPYPERLRPILRLGQLYQSSGLQNWLNRQPLLQKFPQLAAASALLPPLSPASFQDNWPTLLPALGDRRYRVGLLLGCVQRLFNPEVNAAAIRVLRANGCDVVIPPQQGCCGAVAHHQGEMQQAQDLARAVIRSFEAENLDAILVTASGCGHTLKHYGAILADDPEWCDRAQQLADRVQDVQEFLATVGLTTPLHPLQEQPLVVVYQDACHMLHGQKIRNQPRQLLQQIPGIELREPVDAQLCCGSAGIYNLLQPAIAAELGQQKARSLAETGAQMIASANIGCYVQIRHHLQAQSKDLPVLHPLQIIDRAMNFQNH | failed |
| MSVDPMTYEAQFFGFTPQTCMLRIYIAFQDYLFEVMQAVEQVILKKLDGIPDCDISPVQIRKCTEKFLCFMKGHFDNLFSKMEQLFLQLILRIPSNILLPEDKCKETPYSEEDFQHLQKEIEQLQEKYKTELCTKQALLAELEEQKIVQAKLKQTLTFFDELHNVGRDHGTSDFRESLVSLVQNSRKLQNIRDNVEKESKRLKIS | failed |
| MSVETAQRSEVGVAMARSWLLVPAVGSEVLAAAAASGADSLVIDLEDGLPFAAKDEGRARTAEWLARNAGWVRINDATTPHWQRDLDAIRGLPGVRGLMLSKTESPEQVRDTAEGIPGIPVVALVESAAAIVAADDIARTAPVSRLAFGIGDYCRDTGAGRTPMALAYARSRLVNASRAARIGAPIDGPTLSLDAEAVRDDTRLAREMGMTGKLTLATEQVPVINTALAPDSNDISWAETTIARLGADGSRVTHGGHPPQLARAHDILRRAAHFASRT | failed |
| MSVFAKVVELGSFTAAARQLQMSVSSISQTVAKLEDELQVKLLNRSTRSLGLTEAGKIYYQGCRRMLFEAQDVHEQLYAFNNTPIGTLRIGCSSTMAQNVLARITAKMLKEYPGLSVNLVTGIPAPDLIADGLDVVIRVGALQDSSLFSRRLGSMPMVLCAAKSYLAQAGNPEKPADLAGHAWLEYSVRPDNEFVIIAPEGISTRLTPQGRFVTNDPMTLVRWLTAGVGIAYVPLMWAIEEINRGELEILLPSYQSDPRPVYALYTEKDKLPLKVQVCINYLTEYFVDVAKIYQGMHGRGIAR | failed |
| MSVFTTKVQSIGPEAELFKEEKMVILFGKDAPDALADYCYNIEVQPVTEAITDKQTLVIDEQTYQITAVGEVVLTNLDTLGHITIKFDGATTPELPGTLYVEEKAIPEITVGTTIT | failed |
| MSVGRIHSFETCGTVDGPGIRFIVFLQGCLMRCMYCHNRDTWDTHDGKEVTVAELIEEAKSYRHFMKASGGGITCSGGEAMLQPEFVRDFFRAAQAEGIHTCLDTNGYIRKHTDVIDEVLEASDLVMLDLKQMKDDVHKEFIGVSNTRVLDFARYLHKIGQKTWIRYVIVPGYTDDEESAHLLGNFIKDMDNIEKIELLPYHKLGAHKWEALGHDYPLEGVNPPSKETMEKMVEILSQYHNNVKY | failed |
| MSVKAGDVFKYERRFTEEEVFEFANITGDKGRHHVEYDENGRLMVHGLLTASIGTKVGEELHYIARELVSEFIRPVFTGDTITCELTLTNVEQMEGYKKVSIESVYRNQHEKTVLVGTSYGIIRGLEHHHHHH | not failed |
| MSVKIVHHKNFLGMIKELMKDAQSVLDIGCGVGATLKDFPCPIKIGVDAHGPYLEKARLATSFLPIKYEAQRIGEIFLAKSVDCVSMIDVIEHMEKGVGYEVLAQAERIAVKRVIVFTPRGFFKQKAEDHYGLGGESFQEHRSGWEIEDFTQRGYQVIVFNQFHDQSNLAFVESYGKDAKPMDALLAWKELR | not failed |
| MSVKKDWIAPLALLFVSFIWGATFVVVQNAMSFVGPFTFNGIRFLFAGIILLFVQMIFSKKTSKQDIKQSSLAGLTVGFFLCVGYVLQTFGLLYTTSSKAGFLTGLSIVMVPILSFIFLKQKATIFIVIGIAVATAGLYLLTAGDSFQLNIGDILVLGCAVAFAAHILVNGFFSKKISPLLLSTSQVLAVGMFSSICAFLFEDWEKLFSVALWTNASFLFALFLTSLFATSIAFFIQTSAQKHTSPTRVAIIFAMEPVFAALTGVLVANEQLSISAIIGCLCIFLGMVFVELPSKTKKEAQAA | failed |
| MSVKLRLPQSAYPIFDRIEEMAWARHYQQIVREEKETELADDLEKGLPQHLFESLCIDHLQRHGANKQAISHAFDDDVEFQERMAEHIRYMAETIAHHQVDIDLEDLEHHHHHH | not failed |
| MSVPLILTLLAGAATFIGAFLGVLGQKPSNRMLAFSLGFAAGIMLLISLMEMLPAALDTEGMSPVLGYGMFIIGLLGYFGLDRLLPHAHPQDLVQKRQQPLPGSIKRTAILLTLGISLHNFPEGIATFVTASSNLELGFGIALAVALHNIPEGLAVAGPVYAATGSKRTAIFWAGISGMAEILGGVLAWLILGSLVSPIVMAAIMAAVAGIMVALSVDELMPLAKEIDPNNNPSYGVLCGMSIMGLSLVILQTIGIG | failed |
| MSVPRPMEGRASGSARIYQAGGDQYIEEHVHHHAPGSAPLFGHPWTGPAEPREAAPDSVRMPLVGRAPRVLRDRTDLMERLRAAVAGPGSDIQVLHGMGGCGKTAVAQALFTEAVRDHGRVGLWVNASERVSLRAGMLAVAGDRGATAGELAAAAGGRRAAADLVWHYLDQSAQPWLLVLDNADDPAVLEEGSWLRPSPSGTVLVTTRHATSSLWRAPATSSHRLGVLPLEDATLVLRDLAPDAGTRESARKVARRLGCLPLALTLAGAHLAHQLLESWSMDEYDRKLTEESTALVDRGASATGGGQSRHLVGRTWQLSLDGLAERGLPEATALLRLLSCWAADPVPLSLLMPAAQGGVGLEHLDPPLAAPRVEPALRALLDHSLIEMVETDGHRCVKAHGVLLDSVAGSVPDAERALLAAAAGGLLRAALPPEGAASPRARSQVRLLAPHATGLLHRSHRHDLVTAESVRLAVRLARLVYEAGDWTAALALASTAAKTAAEHLGAEHPVTIEARSGQGTVLFRLGRYAEAADLLRPVQQEALRTLGPHDERTLDAAYELQRVLHRLGDLAHARTLLDTVLDGRRQALGEDHVATLKTRCELLELRLAQDEFDGYTAAAGELAGECERRLGPEHLVTVWARDALARGLLRSGRGAEAEELFRRVLAGQRAGYGDDHPLVYGVLIQLSRAQYAQGKRERAAESAREVAEGRAVILGEDHPETVAARAWYTEVLATPPAPDDLVG | failed |

Source: a protein production outcome set (Wang et al. 2014)
